“Also recorded” adds a separate entry of the source.
B1: MACHα1 (C360S): MACHα1 mutant in which the catalytic cysteine Cys360 is replaced by Ser (protein)
chain: MDFSRNLYDIGEQLDSEDLASLKFLSLDYIPQRKQEPIKDALMLFQRLQEKRMLEESNLSFLKELLFRINRLDLLITYLNTRKEEMERELQTPGRAQISAYRVMLYQISEEVSRSELRSFKFLLQEEISKCKLDDDMNLLDIFIEMEKRVILGEGKLDILKRVCAQINKSLLKIINDYEEFSKERSSSLEGSPDEFSNGEELCGVMTISDSPREQDSESQTLDKVYQMKSKPRGYCLIINNHNFAKAREKVPKLHSIRDRNGTHLDAGALTTTFEELHFEIKPHDDCTVEQIYEILKIYQLMDHSNMDCFICCILSHGDKGIIYGTDGQEAPIYELTSQFTGLKCPSLAGKPKVFFIQASQGDNYQKGIPVETDSEEQPYLEMDLSSPQTRYIPDEADFLLGMATVNNCVSYRNPAEGTWYIQSLCQSLRERCPRGDDILTILTEVNYEVSNKDDKKNMGKQMPQPTFTLRKKLVFPSD
B2: MORT-1: Mediator of Receptor-induced Toxicity; protein binding the intracellular domain of FAS-R, SEQ ID NO:2 (protein)
chain: VNQAPECRFGGGILGPLGKRRDLARASEPRTEGARRAGPQPRPLADPAMDPFLVLLHSVSSSLSSSELTELKFLCLGRVVKRKLERVQSGLDLFSMLLEQNDLEPGHTELLRELLASLRRHDLLRRVDDFEAGAAAGAAPGEEDLCAAFNVICDNVGKDWRRLARQLKVSDTKIDSIEDRYPRNLTERVRESLRIWKNTEKENATVAHLVGALRSCQMNLVADLVQEVQQARDLQNRSGAMSPMSWNSDASTSEAS
B3: MACHβ1: MACH isoform, cDNA SEQ ID NO: 4, amino acid SEQ ID NO: 5; lacks the CED3/ICE homology region (protein)
chain: MDFSRNLYDIGEQLDSEDLASLKFLSLDYIPQRKQEPIKDALMLFQRLQEKRMLEESNLSFLKELLFRINRLDLLITYLNTRKEEMERELQTPGRAQISAYRVMLYQISEEVSRSELRSFKFLLQEEISKCKLDDDMNLLDIFIEMEKRVILGEGKLDILKRVCAQINKSLLKIINDYEEFSKERSSSLEGSPDEFSNDFGQSLPNEKQTSGILSDHQQSQFCKSTGESAQTSQH

Experiments:
[1] = tested on: breast carcinoma MCF7 cells; experiment: Cell death on overexpression of MACH isoforms in MCF7 cells; format: cell-based, human; settings: β-galactosidase-expressing cells with apoptopic morphology, 20 h after transfection
Description: To explore the involvement of MACH in cell-death induction, the effect of overexpression of various MACH isoforms on cell viability was examined. The test was performed by transfecting MACH expression vectors together with a β-galactosidase expression vector as a transfection marker into human embryonic kidney 293-EBNA cells and breast carcinoma MCF7 cells.
(§1) In brief, 293-EBNA cells, MCF7 human breast carcinoma cells and HeLa HtTA-1 cells were grown in Dulbecco's modified Eagle's minimal essential medium supplemented with 10% fetal calf serum, nonessential amino acids, 100 U/ml penicillin and 100 μg/ml streptomycin. Cell tissue culture dishes (5×10^5 293-EBNA cells, 3×10^5 s MCF7 cells or 3×10^5 HeLa cells in 6-cm dishes) were transiently transfected, using the calcium phosphate precipitation method, with the cDNAs of the indicated proteins together with the β-galactosidase expression vector. In the experiments presented in FIGS. 14A-D and 15, each dish was transfected with 3.5 μg of the indicated MACH construct and 1.5 μg of pSV-β-gal. In the experiments presented in FIGS. 16A-D and 17-19, each dish was transfected with 2.5 μg of the indicated MACH or MORT1 construct (or, as control, empty vector) and 1.5 μg of pSV-β-gal. The cells were rinsed 6 to 10 h after transfection. The 293-EBNA and MCF7 cells were incubated for a further 18 h without additional treatment. The HeLa cells were incubated for 26 h after transfection and-then for 5 h in the presence of either anti-Fas.APO1 antibody (CH11, 0.5 μg/ml) or TNF (100 ng/ml), together with cycloheximide (10 μg/ml). The extent of cell death at the end of the incubation periods was assessed by determination of β-galactosidase expression, as described by Kumar et al, 1994.
In particular, FIGS. 14A-D show the morphology of human embryonic kidney 293-EBNA cells transiently expressing the indicated MACH isoforms. The arrows (FIG. 14B) point to apoptopic cells. Photographs were taken 26 h after transfection. […] Data are from three independent experiments with the 293-EBNA cells and two independent experiments with the MCF7 cells.

HeLa cells = experiment: Cell death on overexpression of MACH isoforms in HeLa cells; format: cell-based; settings: FIG. 19
Description: as §1
To examine the involvement of the CED3/ICE homology region within the MACHα isoforms in their apoptopic effects, cells were transfected with the expression vector for the MACHβ1 isoform, which lacks the CED3/ICE homology region, as well as with expression vectors for MACHα3, which lacks an N-terminal part of the region, and with expression vectors for MACHα1 (C360S) and for a C-terminally truncated mutant of MACHα1 (MACHα1 (1-415)), which lacks one of the residues believed to be critical for CED3/ICE protease function (corresponding to Ser347 in ICE). […]

MACH B = biological target: T1, MACH B (Homo sapiens, UniProt Q14790); experiment: Two-hybrid β-galactosidase expression filter assay in SFY526 yeast, DNA-binding domain hybrid MACH B; settings: DNA-binding domain hybrid MACH B (ORF-B region)
T1 construct: a construct encoding only the ORF-B (MACH B) region; expressed in transfected cells; host or cells: SFY526 yeast
Text: To isolate proteins interacting with the intracellular domain of the FAS-R, the yeast two-hybrid system was used (Fields and Song, 1989). […] In this system, the genes for the candidate interacting proteins are cloned into separate expression vectors. In one expression vector, the sequence of the one candidate protein is cloned in phase with the sequence of the GAL4 DNA-binding domain to generate a hybrid protein with the GAL4 DNA-binding-domain, and in the other vector, the sequence of the second candidate protein is cloned in phase with the sequence of the GAL4 activation domain to generate a hybrid protein with the GAL4-activation domain. The two hybrid vectors are then co-transformed into a yeast host strain having a lacZ or HIS3 reporter gene under the control of upstream GAL4 binding sites. […]
The yeast two-hybrid test was further applied to evaluate the specificity of binding of MACH to MORT-1, in particular, to define the region in MORT-1 to which MACH binds, as well as to determine which of the MACH ORFs interacts with MORT-1, the procedures being as set forth herein above in Examples 1 and 2. Briefly, various MORT-1 and MACH constructs were prepared for testing the interaction of the proteins encoded by the Gal4 DNA-binding domain and activation domain constructs within transfected SFY526 yeast cells as assessed by the β-galactosidase expression filter assay. […]

Row | Molecule | cell death of transfected MCF7 cells [1] | cytotoxicity in transfected HeLa cells (HeLa cells) | development of color (interaction with DNA-binding domain hybrid) (MACH B)
1 | B1 | No death | somewhat cytotoxic | 
2 | B2 |  |  | + (“+++” and “+” indicate the development of a strong color within 30 and 90 min. of the assay, respectively)
3 | B3 | some slight cell death | more pronounced; also recorded: rather significant cytoxic effect | + (“+++” and “+” indicate the development of a strong color within 30 and 90 min. of the assay, respectively)

— patent US7799901B2, “Modulators of the function of FAS receptors and other proteins” (Yeda Research and Development Co. Ltd., priority 1995, dated 2010)
